Assay results: the RNAGym collection of RNA variant scans (doi:10.1073/pnas.2313332121)

B1: TPR t1 (parent)
chain: GACCAAUCUGCCCUCAGAGCUCGAGAACAUCUUCGGAUGCAGAGGAGGCAGGCUUCGGUGGCGCGAUAGCGCCAACGUCCUCAACCUCCAAUGCAUCCCACCACAUGAUGAUGCCUGAAGAGCCUUGGUUUUUUG

Variants of: B1
Experiment: polymerase ribozyme fitness, log enrichment relative to wild type (log ratio); higher = more active; in vitro selection for triplet polymerase activity
How it was run: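 Each subunit of a heterodimeric triplet polymerase ribozyme was represented by a PCR-built, transcribed mutant library that underwent triplicate single-round in vitro selection with frozen incubation at −7 °C. Extended constructs were recovered by gel excision, streptavidin-bead capture and RT-PCR, and Illumina sequencing of input and output libraries kept genotypes with ≥10 input reads and ≥1 read per output. Fitness is the logarithm of genotype enrichment relative to wild-type enrichment, from inverse-variance-weighted replicate averages, with a logarithm base of 2.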

Variant | polymerase ribozyme fitness (log ratio)
GACCAAUCUGCCCUCAGAGCUCGAGAACAUCUUCGGAUGCAGAGUAGGCAGGCUUCGGUGGCGCGAUAGCGCCAACGUCCUCAACCUCCAAUGCAUCCCACCACAUGAUGAUGCCUGAAAAGCCUUGGUUUUUUG [G45U G120A] | -0.795
GACCAAUCUGCCCUCAGAGCUCGAGAACAUCUUCGGAUGCAGAGUAGGCAGGCUUCGGUGGCGCGAUAGCGCCAACGUCCUCAACCUCCAAUGCAUCCCACCACAUGAUGAUGCCUGAACAGCCUUGGUUUUUUG [G45U G120C] | -0.784
GACCAAUCUGCCCUCAGAGCUCGAGAACAUCUUCGGAUGCAGAGGCGGUAGGCUUCGGUGGCGCGAUAGCGCCAACGUCCUCAACCUCCAAUGCAUCCCACCACAUGAUGUUGCCUGAAGAGCCUUGGUUUUGUG [A46C C49U A111U U133G] | -5.19
GACCAAUCUGCCCUCAGAGCUCGAGAACAUCUUCGGAUGCAGAGGCGGCAGGCUUCCGUGGCGCGAUAGCGCCAACGUCCUCAACCUCCAAUGCAUCCCACCACAUGAUGAUGCCUGAAGAGCCUUGGUUUUUUG [A46C G57C] | -0.329
GACCAAUCUGCCCUCAGAGCUCGAGAACAUCUUCGGAUGCAGAGGCGGCAGGCUUCUGUGGCGCGAUAGCGCCAACGUCCUCAACCUCCAAUGCAUCCCACCACAUGAUGAUGCCUGAAGAGCCUUGGUUUUUUG [A46C G57U] | -0.681
GACCAAUCUGCCCUCAGAGCUCGAGAACAUCUUCGGAUGCAGAGUAGGCAGGCUUCGGUGGCGCGAUAGCACCAACGUCCUCAACCUCCAAUACAUCCCACCACAUGAUGAUGCCUGAAGAGCCUUGGUUUUUUG [G45U G71A G93A] | -2.09
GACCAAUCUGCCCUCAGAGCUCGAGAACAUCUUCGGAUGCAGAGUAGGCAGGCUUCGGUGGCGCGAUAUCGCCAACGUCCUCAACCUCCAAUGCAUCCCACCACAUGAUGAUGCCUGAAGAGCCUUGGUUUUUUG [G45U G69U] | -0.706
GACCAAUCUGCCCUCAGAGCUCGAGAACAUCUUCGGAUGCAGAGGCGGCAGGCUUGGGUGGCGCGAUAGCGCCAACGUCCUCAACCUCCAAUGCAUCCCACCACAUGAUGAUGCCUGAAGAGCCUUGGUUUUUUG [A46C C56G] | -1.37
GACCAAUCUGCCCUCAGAGCUCGAGAACAUCUUCGGAUGCAGAGGCGGCAGGCUUCGGUGGCGCGAUAGCGCCAACGUCCUCAACCUCCAAUGCAUCCCACCAAAUGAUGAUGCCUGUAGAGGCUUGGUUUUUUG [A46C C104A A118U C123G] | -1.15
GACCAAUCUGCCCUCAGAGCUCGAGAACAUCUUCGGAUGCAGAGUAGGCAGGCUUCGGUGGCGCGAUAGCGCCAACGUCCUCAACCUCCAAUGCAUCCCACCACAUGAUGAUGCCUGAAGAACCUUGGUUUUUUG [G45U G122A] | -1.14
GACCAAUCUGCCCUCAGAGCUCGAGAACAUCUUCGGAUGCAGAGUAGGCAGGCUUCGGUGGCGCGAUAGCGCCAACGUCCUCAACCUCCAAAGCAUCCCACCACAUGAUGAUGCCUGAAGAGCCUUGGUUUUUUG [G45U U92A] | -3.79
GACCAAUCUGCCCUCAGAGCUCGAGAACAUCUUCGGAUGCAGAGGCGGCAGGAUUCGGUGGCGCGAUAGCGACAACGUCCUCAACAUCCAAUGCAUCCCACCACAUGAUGAUGCCUGAAGAGCGUUGGUUUUUUG [A46C C53A C72A C86A C124G] | 0.771
GACCAAUCUGCCCUCAGAGCUCGAGAACAUCUUCGGAUGCAGAGUAGGCAGUCUUCGGUGGCGCGAUAGCGCCAACGUCCUCAACCUCCAAUGCAUCCCACCACAUGAUGAUGCCUGAAGAGCCUUGGUUUUUUG [G45U G52U] | -2.65
GACCAAUCUGCCCUCAGAGCUCGAGAACAUCUUCGGAUGCAGAGGCGGCAGGCUUCGGUGGCGCGAUAGCGCAAACGUCCUCAACCUCCAAUGCAUCCCACCACAUGAUGAUGCCUGAAGAGCCUUGGUUUUUUG [A46C C73A] | -1.64
GACCAAUCUGCCCUCAGAGCUCGAGAACAUCUUCGGAUGCAGAGUAGGCAGGCUUCGGUGGCGCGAUAGCGCCAACGUCCUCAACCUCCAAUGCAUCCCACCACAUGAUGAAGCCUGAAGAGCCUUGCUUUUUUG [G45U U112A G128C] | -2.89
GACCAAUCUGCCCUCAGAGCUCGAGAACAUCUUCGGAUGCAGAGUAGGCAGGCUUCGGUGGCGCGAUAGCGCCAACGUCCUCAACCUCCAAUGCAUCCCACCACAUGAUGAUGCCUGAAGAGCCUUGGUGUUUUG [G45U U130G] | -2.66
GACCAAUCUGCCCUCAGAGCUCGAGAACAUCUUCGGAUGCAGAGUAGGCAGGCUUCGGUGGCUCGAUAGCGCCAACGUCCUCAACCUCCAAUGCAUCCCACCACAUGAUGAUGCCUGAAGAGCCUUGGUUUUUUG [G45U G63U] | -2.05
GACCAAUCUGCCCUCAGAGCUCGAGAACAUCUUCGGAUGCAGAGUAGGCAGGCUUCGGUGGCCCGAUAGCGCCAACGUCCUCAACCUCCAAUGCAUCCCACCACAUGAUGAUGCCUGAAGAGCCUUGGUUUUUUG [G45U G63C] | -2.21
GACCAAUCUGCCCUCAGAGCUCGAGAACAUCUUCGGAUGCAGAGGCGGCAGGCUUCGGUGGCGCGAUAGCGCCAAAGUCCUCAACUUCCAAUGCAUCCCACCAUAUGAUGAUGCCUGAAGAGCCUUGGUUUUUUG [A46C C76A C86U C104U] | -0.577
GACCAAUCUGCCCUCAGAGCUCGAGAACAUCUUCGGAUGCAGAGUAGGCAGGCUUCGGUGGCUCGAUAGCGCCAACGUCCUCAGCCUCCAAUGCAUCCCACCACAUGAUGAUGCCUGAAGAGCCUUGGUUUUUUG [G45U G63U A84G] | -3.63
GACCAAUCUGCCCUCAGAGCUCGAGAACAUCUUCGGAUGCAGAGUAGGCAGGCUUCGGUGGCGCGAUAGCGCCAACGUCCUCAACCUCCAAUGCAUCCCACCACAUGAUGAUGCCUCAAGAGCCUUGGUUUUUUG [G45U G117C] | -4.15

Variant | polymerase ribozyme fitness (log ratio)
GACCAAUCUGCCCUCAGAGCUCGAGAACAUCUUCGGAUGCAGAGUAGGCAGGCUUCGGUGGCGCGAUAGCGCCAACGUCCUCAACCUCCAAUGCAGCCCACCACAUGAUGAUGCCUGAAGAGCCUUGGUUUUUUG [G45U U96G] | -1.78
GACCAAUCUGCCCUCAGAGCUCGAGAACAUCUUCGGAUGCAGAGGCGUCAGGCUUCGGUGGCGCGAUAGAGCCAACGUCCUCAACCUCCAAUGCAUCCCACCACAUGAUGAUACCUGAAGAGCCUUGGUUUUUUG [A46C G48U C70A G113A] | -3.12
GACCAAUCUGCCCUCAGAGCUCGAGAACAUCUUCGGAUGCAGAGUAGGCAGGCUUCGGUGAUGCGAUAGCGCCAACGUACUCAACCUCCAAUGCAUCCCACCACAUGAUGAUGCCUGAAGAGCCUUGGUUUUUUG [G45U G61A C62U C79A] | -2.55
GACCAAUCUGCCCUCAGAGCUCGAGAACAUCUUCGGAUGCAGAGUAGGCAGGCUUCGGUGGCGCGAUAACGCCAACGACCUCAACCUCCAAUGCAUCCCACCACAUGAUGAUGCCUGAAGAGCCUUCGUUUUUUG [G45U G69A U78A G127C] | -4.73
GACCAAUCUGCCCUCAGAGCUCGAGAACAUCUUCGGAUGCAGAGUAGGCAGGCUUCGGUGUCGCGAUAGCGCCAACGUCCUCAACCUCCAAUGCAUCCCACCACAUGAUGAUGCCUGAAGAGCCUUGGUUUUUUG [G45U G61U] | -0.836
GACCAAUCUGCCCUCAGAGCUCGAGAACAUCUUCGGAUGCAGAGUAGGCAGGCUUCGGUGGCGCGAUAGCGCCAACUUUCUCAACCUCCAAUGCAUCCCACCACAUGAUGAUGGCUGAAGAGCCUUGGUUUUUUG [G45U G77U C79U C114G] | -4.37
GACCAAUCUGCCCUCAGAGCUCGAGAACAUCUUCGGAUGCAGAGUAGGCAGGCUUCGGUGGCGCGAUAGCGCCAACGUCCUCAACCUCCAAUGCAACCCACCACAUGAUGAUGCCUGAAGAGCCUUGGUUUAUUG [G45U U96A U132A] | -2.11
GACCAAUCUGCCCUCAGAGCUCGAGAACAUCUUCGGAUGCAGAGUAGGCAGGCUCCGGUGGCGCGAUAGCGCCAACGUCCUCAACCUCCAAUGCAUCCCACCACAUGAUGAUGCCUGAAGAGCCUUGGUUUUUUG [G45U U55C] | -1.88
GACCAAUCUGCCCUCAGAGCUCGAGAACAUCUUCGGAUGCAGAGGCGGCAGGCUUCGGUGGCGCGAUAGCGCCAAAGUCCUCAACCUCCAAUGCAUCCCACCACAUGAUGAUGCCUGAAGAGCCUUGGUUUUUUG [A46C C76A] | -0.908
GACCAAUCUGCCCUCAGAGCUCGAGAACAUCUUCGGAUGCAGAGUAGGCAGGCUUCGGGGGCGCGAUAGCGCCAACGUCCUCGACCUCCAAUGCAUCCCACCACAUGAUGAUGCUUGAAGAGCCUUGGUUUUUUG [G45U U59G A83G C115U] | -5.27
GACCAAUCUGCCCUCAGAGCUCGAGAACAUCUUCGGAUGCAGAGUAGGCAGACUUCGGUGGCGCGAUAGCGCCAACGUCCUCAACCUCCAAUGCAUCCCACCACAUGAUGAUGCUUGAAGAGCCUUGGUUUUUUU [G45U G52A C115U G135U] | -4.62
GACCAAUCUGCCCUCAGAGCUCGAGAACAUCUUCGGAUGCAGAGGCGGCAGGCUUAGGUGGCGCGAUAUCGCCAACGUCCUCAACCUCCAAUGCAUCCCACCACAUGAUGAUGCCUGAAGAGCCUUGGUUUUUUG [A46C C56A G69U] | -1.31
GACCAAUCUGCCCUCAGAGCUCGAGAACAUCUUCGGAUGCAGAGGCAGCGGGCUUCGGUGGCGCGAUAGCGCCAACGUCCUCAACCUCCAAUGCAUCCCACCACAUGAUGAUGCCUGAAGAGCCUUGGAUUUUUG [A46C G47A A50G U129A] | -3.12
GACCAAUCUGCCCUCAGAGCUCGAGAACAUCUUCGGAUGCAGAGUAGGCAGGCUUCGGUGGCGCGAUAGCGCCAACGUCCUCAACCUCCAAUUCAUCCCACCACAUGAUGAUGCCUGAAAAGCCUUGGUUUUUUG [G45U G93U G120A] | -0.614
GACCAAUCUGCCCUCAGAGCUCGAGAACAUCUUCGGAUGCAGAGGCGGCAGGCUUAGGUGGCGCGAUAGCGCCAACGUCCUCAAGCUCCAAUGCAUCCCACCACAUGAUGAUGCCUGAAGAGCCUUGGUUUUUUG [A46C C56A C85G] | -5.4
GACCAAUCUGCCCUCAGAGCUCGAGAACAUCUUCGGAUGCAGAGGCGGCAGGCUUCGGUGGCGCGAUAGCGUCAUCGUCCUCAACCUCCAAUGCAUCCCACCACAUGAUGAUGCCUGAAGAGUCUUGGUUUUUUG [A46C C72U A75U C123U] | 0.328
GACCAAUCUGCCCUCAGAGCUCGAGAACAUCUUCGGAUGCAGAGUAGGCAGGCUUCGGUGUCCCGAUAGCGCCAACGUCCUCAACCUCCACUGCGUCCCACCACAUGAUCAUGCCUGAAGAGCCUUGGUUUUUUG [G45U G61U G63C A91C A95G G110C] | -4.25
GACCAAUCUGCCCUCAGAGCUCGAGAACAUCUUCGGAUGCAGAGUAGGCAGGCUUCGGUCGCGCGAUAGCGCCAACGUCCUCAACCUCCAAUGCAUCCCACCACAUGAUGAUGCCUGAAGAGCCGUGGUUUUAUG [G45U G60C U125G U133A] | -1.59
GACCAAUCUGCCCUCAGAGCUCGAGAACAUCUUCGGAUGCAGAGUAGGCAGGCUUCGGUGUCGCGAUAGCGCCAACGUCCUCAACCUCCAAUGCAUCCCACCACAUGAUGAUGCCUUAAGAGACUUGGUUUUUUG [G45U G61U G117U C123A] | -2.94
GACCAAUCUGCCCUCAGAGCUCGAGAACAUCUUCGGAUGCAGAGUAGGCAGGCGUCGGUGGCGCGAUAGCGCCAACCUCCUCAACCUCCAAUGCAUCCCACCACAUGAUGAUGCCUGAAGAGGCUUGGUUUUUUG [G45U U54G G77C C123G] | 0.415
GACCAAUCUGCCCUCAGAGCUCGAGAACAUCUUCGGAUGCAGAGUAGGCAGGCUUCGGUGGCGCGAUAGCGCCAACGCCCUCAACCUCCAAUGCAUCCCACCACAUGAUGAUGCCUGAAGAGCCUUGGUUUUUUG [G45U U78C] | -1.46
